Results reported in patent publication US20050153287A1, “Nr3b nmda receptor subunit compositions and related methods” (priority 2001, published 2005).

Legend:
Format in all cases: cell-based
[1] = system: NMDA receptor (NR1 and NR2A); assay: Glutamate-induced whole-cell current in transfected HEK293 cells
Procedure: (§1) To express the receptors in HEK293 cells, the cells were transfected with 1 μg of each plasmid unless otherwise stated (Shi et al., 1999). The NR1 and NR2A were tagged with green fluorescent protein (GFP) on the extracellular domain to facilitate the identification of transfected cells. […] NMDA receptor mediated current was recorded in the presence of 10 μM glycine. AMPA receptor current was recorded as described (Shi et al., 1999). Pipette solutions contained (in mM) Cs-methanesulfonate 110; CsCl 30; NaCl 4; HEPES 10; EGTA 5; CaCl2 0.5 adjusted to pH 7.3 with CsOH. 1 mM glutamate (for NMDA receptor) or kainate (for AMPA receptor) was pressure (1.0 PSI) applied through a puffer pipette positioned ˜10 μm to the cells. A program based on Igor (WaveMetrics, Inc., Lake Oswego, Oreg.) was used to acquire data on a Macintosh computer.

[2] = system: AMPA receptor (GluR2-(R586Q)); assay: Kainate-induced AMPA receptor current in transfected HEK293 cells; settings: coexpression of NR3B with GluR2-(R586Q) in HEK293 cells
Procedure: as §1

[3] = system: NR1 and NR2A tagged with GFP; assay: Expression levels of GFP-tagged NR1 and NR2A by fluorescence intensity; settings: presence or absence of NR3B; NR1 and NR2A individually expressed with NR3B
Procedure: as §1
The electrophysiological properties of NR3B were tested by expressing NR3B in HEK293 cells. A conventional NMDA receptor channel is formed by a heteromeric combination of NR1, which is a key subunit for functionality, and at least one NR2 subunit, which is modulatory (Dingledine et al., 1999). […] NR1 and NR2A tagged with GFP were individually expressed with NR3B and their expression levels were measured by the fluorescence intensity. The statistical significance in this figure was assessed by Kolmogorov-Smirnov test. […]

B1: NR3B: mouse NR3B NMDA receptor subunit polypeptide (SEQ ID NO: 2), expressed from cDNA plasmid in HEK293 cells (protein, listed as Mus musculus)
chain: MECVQTLWLSLALALARGSWVVRGHPQPCGVPTRAGASVRLAALLPRAPAARARVLAALATPSPRLPHNLSLELVAVASPTRDPASLARGLCQVLAPPGVVASITFPEARPELRLLQFLAAATETPVLSVLRREVRAPLGAPTPFHLQLDWASPLETILDVLVSLVRAHAWEDIALVLCRVRDPSGLVTLWTSRASQAPKFVLDLSQLDSGNDSLRATLALLGTLEGGGTPVSAAVLLGCSTAHAHEVLEAAPPGPQWLLGTPLPAEALPKTGLPPGVLVLGETGQPSLEAAVHDMVELVARALSSMALMHPERALLPAAVNCEDLKTGGSESTARTLARFLSNTSFQGRTGAVWVAGSSQVHVSRHFKVWSLRRDPLGAPAWATVGSWQDGQLDFQPGAAALRVPSPSGTQARPKLRVVTLVEHPFVFTRESDEDGQCPAGQLCLDPGTNDSARLDALFTALENGSVPRTLRRCCYGYCIDLLERLAEDLAFDFELYIVGDGKYGALRDGRWTGLVGDLLAGRAHMAVTSFSINSARSQVVDFTSPFFSTSLGIMVRTRDTASPIGAFMWPLHWSMWVGVFAALHLTALFLTLYEWRSPYGLTPRGRNRGTVFSYSSALNLCYAILFGRTVSSKTPKCPTGRFLMNLWAIFCLLVLSSYTANLAAVMVGDKTFEELSGIHDPKLHHPSQGFRFGTVWESSAEAYIKASFPEMHAHMRRHSAPTTPHGVAMLTSDPPKLNAFIMDKSLLDYEVSIDADCKLLTVGKPFAIEGYGIGLPQNSPLTSNLSEFISRYKSSGFIDLLHDKWYKMVPCGKRVFAVTETLQMGVYHLSGLFVLLCLGLGSALLTSLGEHVFYRLVLPRIRRGNKLQYWLHTSQKIHRALNTGPPEGQQERAEQECSGPKEEQPAADGAGRWRRVRRAVVERERRVRFLLEPGEAGGDHPWLCSNGPGVQAELRELELRIEAARERLRSALLRRGELRAQLGDGTRLRPLRLLHAAPAES
**Q.** What does the source list for B1?
**A.** glutamate-induced whole-cell current ([1]; NR3B coexpressed with NR1 and NR2A in HEK293 cells, compared with NR1 and NR2A alone): markedly depressed; formation of electrophysiologically functional channels ([1]; NR3B coexpressed with NR1 only (n=6)): did not result in electrophysiologically functional channels; formation of electrophysiologically functional channels ([1]; NR3B coexpressed with NR2A only (n=5)): did not result in electrophysiologically functional channels; current amplitude with increasing amount of NR3B plasmid ([1]; NR3B plasmid 0, 1 and 3 μg versus other subunits (each 1 μg), +60 mV, Mg2+-free solution): concomitant decrease in current amplitude; sensitivity of the remaining current to Mg2+ block ([1]; NR3B with NR1 and NR2A, presence or absence of 1 mM Mg2+): not affected; formation of electrophysiologically functional channels ([1]; expression of NR3B alone in HEK293 cells (n=6)): did not result in electrophysiologically functional channels; AMPA receptor mediated current [2]: unchanged; expression levels of NR1 and NR2A (GFP fluorescence) [3]: did not show any significant difference
